Test results taken from article doi:10.1101/2021.11.29.470334 (bioRxiv, 2021).

Biological target: the molecule itself
Assay: cryo-EM structure

B1: Kir6.2 from Mus musculus (mmKir6.2) H175K mutant, as the Kir6.2 subunit of H175K_(cryoEM) (natural protein)
chain: LSRKGIIPEEYVLTRLAEDPAEPRYRTRERRARFVSKKGNCNVAHKNIREQGRFLQDVFTTLVDLKWPHTLLIFTMSFLCSWLLFAMVWWLIAFAHGDLAPGEGTNVPCVTSIHSFSSAFLFSIEVQVTIGFGGRMVTEECPLAILILIVQNIVGLMINAIMLGCIFMKTAQAKRRAETLIFSKHAVITLRHGRLCFMLRVGDLRKSMIISATIHMQVVRKTTSPEGEVVPLHQVDIPMENGVGGNGIFLVAPLIIYHVIDSNSPLYDLAPSDLHHHQDLEIIVILEGVVETTGITTQARTSYLADEILWGQRFVPIVAEEDGRYSVDYSKFGNTIKVPTPLCTARQLDEDRSLLDALTLASSRGPLRKRSVAVAKAKPKFSISPDSLS
binding result: binds
